Source: US20210047426A1

Assays:
[1] = molecular target: Human CD3ε/δ (soluble recombinant human CD3) (human) (UniProt P07766); test: SPR (BIAcore 3000), antigen immobilized on the chip, DART-A injected, 1:1 Langmuir fit, mean of 3 experiments
[2] = molecular target: Cynomolgus CD3ε/δ (soluble recombinant cynomolgus monkey CD3) (cynomolgus monkey) (UniProt Q95LI5); test: as above
[3] = molecular target: Human CD3ε/δ (soluble recombinant human CD3) (human) (UniProt P07766); test: BIACORE surface plasmon resonance, recombinant human CD3 directly immobilized, 1:1 binding fit
[4] = molecular target: Cynomolgus CD3ε/δ (soluble recombinant cynomolgus monkey CD3) (cynomolgus monkey) (UniProt Q95LI5); test: BIACORE surface plasmon resonance, recombinant cynomolgus monkey CD3 directly immobilized, 1:1 binding fit

Chain of Cynomolgus CD3ε/δ (soluble recombinant cynomolgus monkey CD3) (cynomolgus monkey) (Q95LI5 22-117, stated change not applied, chain 1 of 2): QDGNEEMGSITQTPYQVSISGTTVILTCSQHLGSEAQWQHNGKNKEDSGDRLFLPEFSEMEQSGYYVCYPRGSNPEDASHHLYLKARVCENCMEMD
Chain of Cynomolgus CD3ε/δ (soluble recombinant cynomolgus monkey CD3) (cynomolgus monkey) (Q95LI8 22-105, stated change not applied, chain 2 of 2, further chain): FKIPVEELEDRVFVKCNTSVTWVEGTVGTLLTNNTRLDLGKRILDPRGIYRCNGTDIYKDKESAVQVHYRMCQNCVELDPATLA
Chain of Human CD3ε/δ (soluble recombinant human CD3) (human) (P07766 23-126, stated change not applied, chain 1 of 2): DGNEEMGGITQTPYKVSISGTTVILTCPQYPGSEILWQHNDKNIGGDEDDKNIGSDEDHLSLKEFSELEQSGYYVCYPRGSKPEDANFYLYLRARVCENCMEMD
Chain of Human CD3ε/δ (soluble recombinant human CD3) (human) (P04234 22-105, stated change not applied, chain 2 of 2, further chain): as the sequence (Q95LI8 22-105, stated change not applied, chain 2 of 2, further chain) above, with V5I, K15N, V20I, T32S, N33D, N34I, A64T, N74S, L83V counted along it

Kd [1]: 9 nM
koff [1]: 0.005 s⁻¹
kon [1]: 570000 M⁻¹ s⁻¹
Kd [2]: 9.2 nM
koff [2]: 0.005 s⁻¹
kon [2]: 550000 M⁻¹ s⁻¹
Kd [3]: 12.3 nM
Kd [4]: 9 nM
B1: Sequence-Optimized CD123 × CD3 Bi-Specific Diabody (DART-A) (bispecific antibody)
chain 1: QAVVTQEPSLTVSPGGTVTLTCRSSTGAVTTSNYANWVQQKPGQAPRGLIGGTNKRAPWTPARFSGSLLGGKAALTITGAQAEDEADYYCALWYSNLWVFGGGTKLTVLGGGGSGGGGEVQLVQSGAELKKPGASVKVSCKASGYTFTDYYMKWVRQAPGQGLEWIGDIIPSNGATFYNQKFKGRVTITVDKSTSTAYMELSSLRSEDTAVYYCARSHLLRASWFAYWGQGTLVTVSSGGCGGGEVAALEKEVAALEKEVAALEKEVAALEK
chain 2: DFVMTQSPDSLAVSLGERVTMSCKSSQSLLNSGNQKNYLTWYQQKPGQPPKLLIYWASTRESGVPDRFSGSGSGTDFTLTISSLQAEDVAVYYCQNDYSYPYTFGQGTKLEIKGGGSGGGGEVQLVESGGGLVQPGGSLRLSCAASGFTFSTYAMNWVRQAPGKGLEWVGRIRSKYNNYATYYADSVKDRFTISRDDSKNSLYLQMNSLKTEDTAVYYCVRHGNFGNSYVSWFAYWGQGTLVTVSSGGCGGGKVAALKEKVAALKEKVAALKEKVAALKE
